US20260116960A1 (SHANGHAI HONGCHENG BIOPHARMACEUTICAL, published 2026)

Assays:
[1] = target: T1, human PD-1 on the cell surface (human, UniProt Q15116 25-288); assay: flow cytometry, 293T-hPD-1 cells, batch FACS#2
T1 construct: whole, on cells; also called cell surface PD-1
Protocol: After centrifugation at 300 g for 5 minutes, the supernatant was discarded. The antibodies were serially diluted 3-fold with FACS buffer to obtain two gradient series solution FACS #1 and FACS #2, with the starting concentration of 200 nM (Table 5, FACS #1) or 100 nM (Table 5, FACS #2, FIG. 2), respectively. Then 100 μL/well was added to a 96-well plate in triplicate, mixed, and incubated at 4° C. for 60 min. The plate was centrifuged and washed three times with FACS buffer. 100 μL/well of 1:800 diluted AF647-anti-hIgG(H+L) (Jackson, Catalog No.: 109-605-003) was added and incubated at 4° C. for 50 minutes. After washing the plate three times with FACS buffer, 100 μL/well of FACS buffer was added to resuspend the cells, and the fluorescence signal was detected on a flow cytometer (BECKMAN COULTER cytoFLEX). The binding activity was fitted using a four-parameter model to calculate the EC₅₀ value of each antibody binding to PD-1.

[2] = target: T2, human CTLA-4 on the cell surface (human, UniProt P16410 36-223); assay: flow cytometry, CHO-hCTLA-4 cells, batch FACS#4
T2 construct: whole, on cells; also called CHO-hCTLA-4 cells; CHOK1-hCTLA4 cells
T2 sequence (P16410 36-223): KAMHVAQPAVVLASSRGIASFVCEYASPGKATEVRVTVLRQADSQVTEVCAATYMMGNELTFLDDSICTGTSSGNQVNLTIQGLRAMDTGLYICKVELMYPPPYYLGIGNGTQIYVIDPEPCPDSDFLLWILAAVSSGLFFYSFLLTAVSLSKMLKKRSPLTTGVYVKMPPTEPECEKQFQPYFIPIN

T1 sequence (Q15116 25-288): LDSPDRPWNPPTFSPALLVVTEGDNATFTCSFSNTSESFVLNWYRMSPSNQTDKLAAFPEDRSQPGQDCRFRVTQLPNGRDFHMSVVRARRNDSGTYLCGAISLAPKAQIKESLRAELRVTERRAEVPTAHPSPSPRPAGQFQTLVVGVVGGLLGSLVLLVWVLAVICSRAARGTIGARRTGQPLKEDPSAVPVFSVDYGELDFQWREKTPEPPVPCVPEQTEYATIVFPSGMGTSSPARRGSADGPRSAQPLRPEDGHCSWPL

EC50 [1]: 2.37 nM
EC50 [2]: 4.86 nM
B1: HC010-F10 (trispecific antibody, human IgG4 S228P, kappa)
heavy: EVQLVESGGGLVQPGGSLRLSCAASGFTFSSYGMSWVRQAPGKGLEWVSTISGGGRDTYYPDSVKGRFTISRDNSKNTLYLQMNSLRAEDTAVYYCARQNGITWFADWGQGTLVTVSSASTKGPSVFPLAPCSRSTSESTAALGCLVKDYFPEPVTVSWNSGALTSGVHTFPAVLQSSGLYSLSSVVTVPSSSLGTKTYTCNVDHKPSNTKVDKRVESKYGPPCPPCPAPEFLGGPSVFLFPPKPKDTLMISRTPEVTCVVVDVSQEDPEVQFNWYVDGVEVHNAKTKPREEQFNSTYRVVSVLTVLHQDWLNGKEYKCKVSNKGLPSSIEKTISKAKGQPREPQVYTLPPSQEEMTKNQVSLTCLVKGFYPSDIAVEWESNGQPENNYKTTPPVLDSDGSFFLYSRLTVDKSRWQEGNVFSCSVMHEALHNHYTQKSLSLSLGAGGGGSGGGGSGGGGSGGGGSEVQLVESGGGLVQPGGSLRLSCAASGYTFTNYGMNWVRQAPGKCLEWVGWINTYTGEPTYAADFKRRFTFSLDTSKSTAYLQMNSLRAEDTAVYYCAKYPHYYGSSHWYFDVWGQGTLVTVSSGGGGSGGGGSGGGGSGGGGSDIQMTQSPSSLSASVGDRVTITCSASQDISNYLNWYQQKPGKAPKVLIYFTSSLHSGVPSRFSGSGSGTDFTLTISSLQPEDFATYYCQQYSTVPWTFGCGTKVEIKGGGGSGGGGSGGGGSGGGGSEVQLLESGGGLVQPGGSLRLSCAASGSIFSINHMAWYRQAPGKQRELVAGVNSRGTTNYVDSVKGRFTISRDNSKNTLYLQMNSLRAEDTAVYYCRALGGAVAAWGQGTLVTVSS
light: DIQMTQSPSSLSASVGDRVTITCRASESVDNYGISFMNWYQQKPGKAPKLLIYAASNQGSGVPSRFSGSGSGTDFTLTISSLQPEDFATYYCQQSKEVPWTFGGGTKVEIKRTVAAPSVFIFPPSDEQLKSGTASVVCLLNNFYPREAKVQWKVDNALQSGNSQESVTEQDSKDSTYSLSSTLTLSKADYEKHKVYACEVTHQGLSSPVTKSFNRGEC
notes: light: CQ1-3/1-11 VL-kappa; also called H010-F10
